For this assay, the target named is URH1p riboside hydrolase from Saccharomyces cerevisiae (S. cerevisiae) (UniProt Q04179). Put plainly: AUC; sedimentation velocity, absorbance 280 nm, 45,000 rpm; samples kept at 4 °C for two weeks; 2.6, 5.2, 10.4 and 15.6 µM; monomer to disulphide-linked dimer.

The values that follow come from article PMC11241417.

“URH1p riboside hydrolase from Saccharomyces cerevisiae (from UniProt Q04179 2-340) (enzyme)”: the ratio between monomeric and dimeric URH1p in the sample turned out to be 33%; the stoichiometry N amounted to 2.
